Source: article PMC4587348 (Archives of biochemistry and biophysics, 2015)

Assays:
[1] = biological target: ScHIcDH (homoisocitrate dehydrogenase from Saccharomyces cerevisiae) (Saccharomyces cerevisiae, UniProt P40495, D271N); assay: initial rate, NADH formation at […] nm, dead-end inhibition; format: biochemical
[2] = tested on: Tyr150; assay: kinetics; conditions: cited from earlier work
[3] = tested on: Lys206; assay: kinetics; conditions: Steady-state turnover at saturating reactants (V/Et); cited from earlier work

Chain of ScHIcDH (homoisocitrate dehydrogenase from Saccharomyces cerevisiae) (P40495 23-371 D271N): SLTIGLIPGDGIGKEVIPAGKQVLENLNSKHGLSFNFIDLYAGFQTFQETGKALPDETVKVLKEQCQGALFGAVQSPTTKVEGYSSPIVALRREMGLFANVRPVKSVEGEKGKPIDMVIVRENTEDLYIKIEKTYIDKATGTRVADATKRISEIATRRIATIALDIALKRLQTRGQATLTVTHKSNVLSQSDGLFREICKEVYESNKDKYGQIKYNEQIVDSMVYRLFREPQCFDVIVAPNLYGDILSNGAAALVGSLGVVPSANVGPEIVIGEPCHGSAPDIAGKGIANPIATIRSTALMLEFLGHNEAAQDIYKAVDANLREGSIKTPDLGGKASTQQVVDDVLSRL

## CC(=O)c1ccc[n+]([C@@H]2O[C@H](COP(=O)([O-])OP(=O)(O)OC[C@H]3O[C@@H](n4cnc5c(N)ncnc54)[C@H](O)[C@@H]3OP(=O)(O)O)[C@@H](O)[C@H]2O)c1 [3-AcPyrADP]
[1]
  Ki: 0.34 ± 0.05 mM

## O=C(O)CS[C@H](C(=O)O)[C@@H](O)C(=O)O [Thiahomoisocitrate]
[1]
  Ki: 20 ± 3 mM

## Homoisocitrate dehydrogenase (ScHIcDH) (Saccharomyces cerevisiae)
[2]; Steady-state turnover. V profile: enzyme saturated with NAD and MgHIc.
  pKa: 9.5

## Homoisocitrate dehydrogenase (ScHIcDH) K206M mutant (Saccharomyces cerevisiae; K206M)
[2]; Steady-state turnover at saturating reactants (V/Et)
  pKa: 9.5

## Homoisocitrate dehydrogenase (ScHIcDH) Y150F mutant (Saccharomyces cerevisiae; Y150F)
[3]
  pKa: 6
